Source: article PMC6726503
Where two headings read alike, the source gives them in different places. One block for each substance: values may come before it.

How the values were obtained:
[1] = target: TGF-β2DM:TβRII binary complex (human) (UniProt P37173); test: SEC-MALS
human TGF-β2 (human) [2] = test: SPR
TβRII ECD (Homo sapiens) = TβRII ECD (Homo sapiens) (UniProt P37173); conditions: cited from earlier work
human TGF-β2 (human) [3] = test: SPR; remark: listed apart in the source

TβRII ECD (Homo sapiens), sequence (P37173 23-166): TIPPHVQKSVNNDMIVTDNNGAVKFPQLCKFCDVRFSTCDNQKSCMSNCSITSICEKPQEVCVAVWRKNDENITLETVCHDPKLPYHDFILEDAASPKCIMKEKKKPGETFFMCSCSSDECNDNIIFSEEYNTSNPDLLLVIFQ

stoichiometry N (BG (O-ZP) per TGF-β2DM dimer) [1]: 1
Kd (human TGF-β2 (human) [2]): 4.95 nM
koff (human TGF-β2 (human) [2]): 0.00173 s⁻¹
kon (human TGF-β2 (human) [2]): 350000 M⁻¹ s⁻¹
Substance: full-length zebrafish betaglycan ectodomain (domain or fragment)

Substance: TGF-β2 (from UniProt P61812)
Kd (TβRII ECD (Homo sapiens)): 20000 nM

KD1 (heterogeneous-ligand fit, ligand class 1) (human TGF-β2 (human) [2]): 1100 nM
KD2 (heterogeneous-ligand fit, ligand class 2) (human TGF-β2 (human) [2]): 480 nM
ka1 (heterogeneous-ligand fit, ligand class 1) (human TGF-β2 (human) [2]): 480000 M⁻¹ s⁻¹
kd1 (heterogeneous-ligand fit, ligand class 1) (human TGF-β2 (human) [2]): 0.51 s⁻¹
kd2 (heterogeneous-ligand fit, ligand class 2) (human TGF-β2 (human) [2]): 9300 s⁻¹
Substance: zebrafish betaglycan ZP-C domain (domain or fragment)

stoichiometry N (BGO per TGF-β2DM dimer) [1]: 1
Kd (human TGF-β2 (human) [2]): 27 nM
koff (human TGF-β2 (human) [2]): 0.0288 s⁻¹
kon (human TGF-β2 (human) [2]): 1.07e+06 M⁻¹ s⁻¹
Kd (human TGF-β2 (human) [3]): 15 nM
koff (human TGF-β2 (human) [3]): 0.00772 s⁻¹
kon (human TGF-β2 (human) [3]): 528000 M⁻¹ s⁻¹
Substance: zebrafish betaglycan orphan domain (domain or fragment)
